In patent publication US20220016205A1, “METHODS OF OVERCOMING RESISTANCE TO IMMUNE CHECKPOINT INHIBITORS” (Board of Regents, The University of Texas System, priority 2018, published 2022):

Legend:
[1] = test system: RAW 264.7 cells; test: Immunofluorescence of p38a and SMAD1/5/9 phosphorylation in RAW 264.7 cells treated with BMP7 or BMP7 plus follistatin; format: cell-based, murine; details: 24 hours (FIG. 2K)
Protocol: Immunofluorescence analysis. RAW 264.7 cells were counted with a hemocytometer (0.4% Trypan blue solution), diluted to 200,000, and seeded in 4-well culture slides (Lab-Tek, Catalog #154917), and allowed to attach overnight. Cells were treated with 250 ng BMP7 (R&D Systems, Catalog #5666-BP-010) or follistatin (R&D Systems, Catalog #769-FS-025) and incubated for 24 h, and then fixed with 1% paraformaldehyde for 10 minutes, followed by a 10-minute wash in 70% ethanol at room temperature. Cells were then treated with 0.1% NP40 in PBS for 20 minutes, washed in PBS four times, and then blocked with 5% bovine serum albumin in PBS for 30 minutes. Cells were then incubated with p38a MAPK (L53F8) (Cell Signaling, Catalog #9228) and Phospho-Smad1 (Ser463/465), Smad5 (Ser463/465), and Smad9 (Ser465/467) (D5B10) (Cell Signaling, Catalog #13820) in 5% bovine serum albumin in PBS overnight according to the manufacturer's protocol. […] Slides were examined with a fluorescence microscope (Leica, Buffalo Grove, Ill.), and images were captured by a charge-coupled device camera and imported into the Advanced Spot Image analysis software package.

[2] = test system: peritoneal macrophages; test: qPCR in peritoneal macrophages co-cultured with 344SQR cells (transwell) with follistatin or K02288; format: cell-based, mouse; details: 344SQR co-culture plus follistatin versus 344SQR co-culture only, 24 or 48 hours (FIG. 3J)
[3] = test system: RAW 264.7 cells; test: qPCR in RAW 264.7 cells co-cultured with 344SQR cells (transwell) with follistatin or K02288; format: cell-based, murine; details: 344SQR co-culture plus follistatin versus 344SQR co-culture only, 24 or 48 hours (FIG. 3I)
Excerpt: (§1) Quantitative polymerase chain reaction (qPCR). Total RNA was isolated from cells and tumors with Triazol (Life Technologies) according to the manufacturer's protocol. For studies of BMP7, p38α, IL-1α, IL-1β, TNF-α, RANTES, IL-2, and IFN-γ expression, mRNA was retrotranscribed with the iScript™ gDNA Clear cDNA Synthesis Kit (BioRad) and analyzed by qPCR using SYBR Green (Life Technologies) with specific primers according to the manufacturer's protocol. The comparative Ct method was used to calculate the relative abundance of mRNAs compared with ACTB (beta-actin) expression for cancer cells or CD45 expression for immune cells.
Co-culture experiments and treatments. Viable cells were counted with a hemocytometer (0.4% Trypan blue solution) and diluted to 40,000 cells per well in 24-wells plates. Cells from 344SQP, 344SQR, 344SQ ctrl, or 344SQ-shBMP7 tumors were seeded at the top inserts (24-mm Transwell with 0.4-μm pore polycarbonate membrane insert, Sigma-Aldrich), and RAW 264.7 or CD4^+ T cells were seeded at the bottom of the transwell system. […] RNA was then isolated from RAW 264.7 or CD4^+ T cells and analyzed for p38α, IL-1α, IL-1β, TNF-α, RANTES, IL-2 and IFN-γ expression with qPCR. […]

[4] = test system: RAW 264.7 cells; test: qPCR of p38α, IL-1α, IL-1β, TNF-α, RANTES in RAW 264.7 cells treated with BMP7 or BMP7 plus follistatin; format: cell-based, murine; details: BMP7 plus follistatin versus BMP7 only, 24 or 48 hours (FIG. 3H)
Excerpt: as §1
Co-culture experiments and treatments. Viable cells were counted with a hemocytometer (0.4% Trypan blue solution) and diluted to 40,000 cells per well in 24-wells plates. Cells from 344SQP, 344SQR, 344SQ ctrl, or 344SQ-shBMP7 tumors were seeded at the top inserts (24-mm Transwell with 0.4-μm pore polycarbonate membrane insert, Sigma-Aldrich), and RAW 264.7 or CD4^+ T cells were seeded at the bottom of the transwell system. […] RNA was then isolated from RAW 264.7 or CD4^+ T cells and analyzed for p38α, IL-1α, IL-1β, TNF-α, RANTES, IL-2 and IFN-γ expression with qPCR.

[5] = test system: CD4^+ T cells; test: Western blotting of p38a and SMAD1/5/9 phosphorylation in CD4+ T cells treated with BMP7 or BMP7 plus follistatin; format: cell-based, mouse; details: BMP7 plus follistatin versus BMP7 alone, 1 hour (FIG. 4A)
Protocol: Protein extraction and Western blot analysis. Total protein was extracted by using NP40 lysis buffer (0.5% NP40, 250 mmol/1 NaCl, 50 mmol/1 HEPES, 5 mmol/1 ethylenediaminetetraacetic acid, and 0.5 mmol/1 egtazic acid) supplemented with protease inhibitors cocktails (Sigma-Aldrich). Lysates were centrifuged at 10,000×g for 10 minutes, and the supernatant was collected for experiments. Protein lysates (40 μg) were resolved on denaturing gels with 4-20% sodium dodecyl sulfate-polyacrylamide and transferred to nitrocellulose membranes (Bio-Rad Laboratories, Hercules, Calif.). Membranes were probed with primary antibodies directed against BMP7 (Abcam, Catalog #ab56023), Phospho-Smad1 (Ser463/465)/Smad5 (Ser463/465)/Smad9 (Ser465/467) (Cell Signaling Technologies, Catalog #13820), p38 MAPK (Cell Signaling Technologies, Catalog #8690), Vinculin (Cell Signaling Technologies, Catalog #13901), β-Actin (Cell Signaling Technologies, Catalog #3700), and a secondary antibody conjugated with horseradish peroxidase (Amersham GE Healthcare). […]
Co-culture experiments and treatments. Viable cells were counted with a hemocytometer (0.4% Trypan blue solution) and diluted to 40,000 cells per well in 24-wells plates. […] RNA was then isolated from RAW 264.7 or CD4^+ T cells and analyzed for p38α, IL-1α, IL-1β, TNF-α, RANTES, IL-2 and IFN-γ expression with qPCR.

B1: follistatin: BMP7 antagonist protein, natural inhibitor of BMP7 (R&D Systems, Catalog #769-FS-025) (protein, UniProt P19883 30-344, looked up)
Follistatin: GNCWLRQAKNGRCQVLYKTELSKEECCSTGRLSTSWTEEDVNDNTLFKWMIFNGGAPNCIPCKETCENVDCGPGKKCRMNKKNKPRCVCAPDCSNITWKGPVCGLDGKTYRNECALLKARCKEQPELEVQYQGRCKKTCRDVFCPGSSTCVVDQTNNAYCVTCNRICPEPASSEQYLCGNDGVTYSSACHLRKATCLLGRSIGLAYEGKCIKAKSCEDIQCTGGKKCLWDFKVGRGRCSLCDELCPDSKSDEPVCASDNATYASECAMKEAACSSGVLLEVKHSGSCNSISEDTEEEEEDEDQDYSFPISSILEW
For B1, the p38a expression ([1]; BMP7 plus follistatin compared with BMP7 alone) was “higher”, the SMAD1/5/9 activation ([1]; BMP7 plus follistatin versus BMP7 alone) was “lower” and the “expression of p38a and p38α-regulated cytokines and chemokines” value [2] was “higher expression”. The “expression of p38a and p38α-regulated cytokines and chemokines” value [3] was “higher expression”, the “expression of p38a and p38α-regulated cytokines and chemokines” value [4] was “higher expression” and the SMAD1/5/9 activation [5] was “lower”. For the same molecule, the p38a expression [5] was “higher”.
